Data on one variant can be found in IntAct's records for PubMed 25535969.

B1: Lysine-specific demethylase 3A (Homo sapiens), Q9Y4C1 (parent)
chain: MVLTLGESWPVLVGRRFLSLSAADGSDGSHDSWDVERVAEWPWLSGTIRAVSHTDVTKKDLKVCVEFDGESWRKRRWIEVYSLLRRAFLVEHNLVLAERKSPEISERIVQWPAITYKPLLDKAGLGSITSVRFLGDQQRVFLSKDLLKPIQDVNSLRLSLTDNQIVSKEFQALIVKHLDESHLLKGDKNLVGSEVKIYSLDPSTQWFSATVINGNPASKTLQVNCEEIPALKIVDPSLIHVEVVHDNLVTCGNSARIGAVKRKSSENNGTLVSKQAKSCSEASPSMCPVQSVPTTVFKEILLGCTAATPPSKDPRQQSTPQAANSPPNLGAKIPQGCHKQSLPEEISSCLNTKSEALRTKPDVCKAGLLSKSSQIGTGDLKILTEPKGSCTQPKTNTDQENRLESVPQALTGLPKECLPTKASSKAELEIANPPELQKHLEHAPSPSDVSNAPEVKAGVNSDSPNNCSGKKVEPSALACRSQNLKESSVKVDNESCCSRSNNKIQNAPSRKSVLTDPAKLKKLQQSGEAFVQDDSCVNIVAQLPKCRECRLDSLRKDKEQQKDSPVFCRFFHFRRLQFNKHGVLRVEGFLTPNKYDNEAIGLWLPLTKNVVGIDLDTAKYILANIGDHFCQMVISEKEAMSTIEPHRQVAWKRAVKGVREMCDVCDTTIFNLHWVCPRCGFGVCVDCYRMKRKNCQQGAAYKTFSWLKCVKSQIHEPENLMPTQIIPGKALYDVGDIVHSVRAKWGIKANCPCSNRQFKLFSKPASKEDLKQTSLAGEKPTLGAVLQQNPSVLEPAAVGGEAASKPAGSMKPACPASTSPLNWLADLTSGNVNKENKEKQPTMPILKNEIKCLPPLPPLSKSSTVLHTFNSTILTPVSNNNSGFLRNLLNSSTGKTENGLKNTPKILDDIFASLVQNKTTSDLSKRPQGLTIKPSILGFDTPHYWLCDNRLLCLQDPNNKSNWNVFRECWKQGQPVMVSGVHHKLNSELWKPESFRKEFGEQEVDLVNCRTNEIITGATVGDFWDGFEDVPNRLKNEKEPMVLKLKDWPPGEDFRDMMPSRFDDLMANIPLPEYTRRDGKLNLASRLPNYFVRPDLGPKMYNAYGLITPEDRKYGTTNLHLDVSDAANVMVYVGIPKGQCEQEEEVLKTIQDGDSDELTIKRFIEGKEKPGALWHIYAAKDTEKIREFLKKVSEEQGQENPADHDPIHDQSWYLDRSLRKRLHQEYGVQGWAIVQFLGDVVFIPAGAPHQVHNLYSCIKVAEDFVSPEHVKHCFWLTQEFRYLSQTHTNHEDKLQVKNVIYHAVKDAVAMLKASESSFGKP

This test covers variants of B1. To be noted: with STAT1, P42224-1.
STAT1, P42224-1, sequence (P42224 whole entry): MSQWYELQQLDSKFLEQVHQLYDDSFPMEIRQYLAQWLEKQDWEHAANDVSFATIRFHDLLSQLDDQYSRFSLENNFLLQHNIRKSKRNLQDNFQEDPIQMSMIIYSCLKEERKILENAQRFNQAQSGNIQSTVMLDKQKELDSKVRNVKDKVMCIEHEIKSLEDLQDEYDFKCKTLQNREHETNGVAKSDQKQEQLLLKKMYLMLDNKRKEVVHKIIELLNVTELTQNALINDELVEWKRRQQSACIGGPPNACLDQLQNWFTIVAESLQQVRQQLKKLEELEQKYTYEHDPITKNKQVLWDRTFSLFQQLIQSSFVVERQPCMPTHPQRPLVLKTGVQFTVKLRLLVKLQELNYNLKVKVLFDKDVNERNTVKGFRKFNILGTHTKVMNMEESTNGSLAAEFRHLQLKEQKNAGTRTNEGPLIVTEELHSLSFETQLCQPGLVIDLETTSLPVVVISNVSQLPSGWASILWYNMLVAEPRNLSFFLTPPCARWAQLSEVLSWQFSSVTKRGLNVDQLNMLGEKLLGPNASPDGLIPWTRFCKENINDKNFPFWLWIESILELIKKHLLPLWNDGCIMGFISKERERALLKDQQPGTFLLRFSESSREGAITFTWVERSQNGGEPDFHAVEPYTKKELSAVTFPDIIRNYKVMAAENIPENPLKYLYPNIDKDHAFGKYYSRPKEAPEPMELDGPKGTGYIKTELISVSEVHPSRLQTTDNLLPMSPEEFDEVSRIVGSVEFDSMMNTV
Turning to S264A, the “effect of a mutation on the interaction” value is “disrupting interaction strength”.
